According to publication PMC4737396 (British Journal of Pharmacology, 2015):

Key:
perfused rat pancreas = conditions: 100 nM (Pro3)GIP, 1 nM GIP, 10 mM arginine, 7 mM glucose, radioimmunoassay, N=6-9
[1] = test system: perfused pancreata from GIPR KO mice; conditions: 100 nM mouse (Pro3)GIP, 1 nM mouse GIP, 10 mM arginine, 7 mM glucose, N=3
pigs = conditions: ref Deacon et al., 2006; cited from earlier work
GIP receptor = conditions: read-out: affinity (IC50); ref Deacon et al., 2006; cited from earlier work
[2] = target: Mouse GIP receptor (mouse) (UniProt Q0P543)
[3] = target: Human GIP receptor (human) (UniProt P48546)
[4] = target: Mouse GIP receptor (mouse) (UniProt Q0P543); assay: radioligand binding
[5] = target: Human GIP receptor (human) (UniProt P48546); assay: radioligand binding
Rat GIP receptor (rat) [6] = target: Rat GIP receptor (rat) (UniProt P43219)
Rat GIP receptor (rat) [7] = target: Rat GIP receptor (rat) (UniProt P43219); assay: radioligand binding
Rat GIP receptor (rat) [8] = target: Rat GIP receptor (rat) (UniProt P43219); remark: listed apart in the source
Human GIP receptor [9] = target: T1, Human GIP receptor (human, UniProt P48546 22-466); assay: radioligand binding
T1 sequence: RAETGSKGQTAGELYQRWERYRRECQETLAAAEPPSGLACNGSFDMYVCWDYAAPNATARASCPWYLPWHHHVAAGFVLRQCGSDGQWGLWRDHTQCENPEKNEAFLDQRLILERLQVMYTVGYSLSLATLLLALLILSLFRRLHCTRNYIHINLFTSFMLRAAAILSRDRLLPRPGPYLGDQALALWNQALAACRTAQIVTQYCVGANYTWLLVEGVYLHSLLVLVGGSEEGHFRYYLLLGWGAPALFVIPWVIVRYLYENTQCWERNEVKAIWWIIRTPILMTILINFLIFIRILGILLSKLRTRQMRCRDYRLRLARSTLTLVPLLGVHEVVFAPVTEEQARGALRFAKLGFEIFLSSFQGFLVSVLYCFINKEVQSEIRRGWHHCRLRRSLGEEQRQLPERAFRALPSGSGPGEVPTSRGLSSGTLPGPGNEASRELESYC

Rat GIP receptor [10] = target: T2, Rat GIP receptor (rat, UniProt P43219 19-455); assay: radioligand binding
T2 sequence: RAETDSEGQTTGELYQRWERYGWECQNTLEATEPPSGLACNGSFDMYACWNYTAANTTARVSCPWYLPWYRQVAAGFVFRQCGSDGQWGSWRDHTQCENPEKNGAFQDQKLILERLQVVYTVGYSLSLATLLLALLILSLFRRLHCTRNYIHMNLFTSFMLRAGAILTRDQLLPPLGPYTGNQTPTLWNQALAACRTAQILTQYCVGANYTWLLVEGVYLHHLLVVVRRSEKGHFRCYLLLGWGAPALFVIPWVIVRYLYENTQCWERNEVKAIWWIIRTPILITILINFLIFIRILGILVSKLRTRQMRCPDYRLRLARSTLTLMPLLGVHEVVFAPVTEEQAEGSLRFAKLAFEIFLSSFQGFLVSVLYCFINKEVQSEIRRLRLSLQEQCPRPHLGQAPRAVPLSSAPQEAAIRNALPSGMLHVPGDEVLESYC

Human GIP receptor [11] = target: T1, Human GIP receptor; assay: cell-based or functional assay
Rat GIP receptor [12] = target: T2, Rat GIP receptor; assay: cell-based or functional assay
Mouse GIP receptor [13] = target: T3, Mouse GIP receptor (mouse, UniProt Q0P543 19-460); assay: cell-based or functional assay
T3 sequence: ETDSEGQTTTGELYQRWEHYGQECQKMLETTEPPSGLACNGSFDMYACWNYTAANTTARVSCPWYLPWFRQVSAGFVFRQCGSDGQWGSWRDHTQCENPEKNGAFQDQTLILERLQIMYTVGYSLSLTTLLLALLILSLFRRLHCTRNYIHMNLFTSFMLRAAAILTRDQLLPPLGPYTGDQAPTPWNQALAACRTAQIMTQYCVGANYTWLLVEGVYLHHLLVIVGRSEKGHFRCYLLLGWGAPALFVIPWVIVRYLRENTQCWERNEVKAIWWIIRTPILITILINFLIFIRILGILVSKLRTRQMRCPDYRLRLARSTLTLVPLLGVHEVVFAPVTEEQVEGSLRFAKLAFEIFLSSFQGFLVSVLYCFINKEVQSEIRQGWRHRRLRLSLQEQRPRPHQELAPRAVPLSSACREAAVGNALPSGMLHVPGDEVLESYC

Mouse GIP receptor [14] = target: T3, Mouse GIP receptor; assay: radioligand binding

Question: What does the source list for `N=C(N)NCCC[C@H](N)C(=O)O` [arginine]?
Answer: glucagon secretion (perfused rat pancreas): induced secretion of the respective hormones; insulin secretion (perfused rat pancreas): induced secretion of the respective hormones; somatostatin secretion (perfused rat pancreas): induced secretion of the respective hormones; glucagon secretion [1]: induced secretion of the respective hormones; insulin secretion [1]: induced secretion of the respective hormones; somatostatin secretion [1]: induced secretion of the respective hormones

Question: For “GIP(3–42): naturally occurring GIP metabolite (EGTFISDYSIAMDKIHQQDFVNWLLAQKGKKNDWKHNITQ; Gastric inhibitory polypeptide; UniProt P09681 54-93, looked up, fragment)”, which “antagonistic effect in vivo” value (pigs) is on record?
Answer: no antagonistic effect could be demonstrated

Question: And the IC50 (GIP receptor)?
Answer: 22 nM

Question: With Human (Pro3)GIP (peptide) as the molecule, how does the EC50 of cAMP accumulation in transfected COS-7 cells [2] read?
Answer: 92 nM

Question: And the Emax of cAMP accumulation in transfected COS-7 cells [2]?
Answer: 71

Question: And the EC50 of cAMP accumulation in transfected COS-7 cells [3]?
Answer: 4.7 nM

Question: And the logIC50 [4]?
Answer: -7.4

Question: And the logIC50 [5]?
Answer: -8

Question: Which results are given for “Mouse (Pro3)GIP (from UniProt P48756 44-85) (peptide)”?
Answer: EC50 of cAMP accumulation in transfected COS-7 cells [2]: 29 nM; Emax of cAMP accumulation in transfected COS-7 cells [2]: 59; EC50 of cAMP accumulation in transfected COS-7 cells (Rat GIP receptor (rat) [6]): 15 nM; Emax of cAMP accumulation in transfected COS-7 cells (Rat GIP receptor (rat) [6]): 61; Emax of cAMP accumulation in transfected COS-7 cells [3]: 67; logIC50 [4]: -8.3; logIC50 (Rat GIP receptor (rat) [7]): -8.1; logIC50 [5]: -8.1

Question: For “Rat (Pro3)GIP (from UniProt Q06145 44-85) (peptide)”, which Emax of cAMP accumulation, normalised to rat GIP on the rat receptor (Figure 2B) (Rat GIP receptor (rat) [8]) is on record?
Answer: 50%

Question: What about the EC50 of cAMP accumulation in transfected COS-7 cells [2] of the same molecule?
Answer: 38 nM

Question: What about the Emax of cAMP accumulation in transfected COS-7 cells [2] of the same molecule?
Answer: 57

Question: And the EC50 of cAMP accumulation in transfected COS-7 cells (Rat GIP receptor (rat) [6])?
Answer: 13 nM

Question: And the Emax of cAMP accumulation in transfected COS-7 cells (Rat GIP receptor (rat) [6])?
Answer: 64

Question: And the Emax of cAMP accumulation in transfected COS-7 cells [3]?
Answer: 73

Question: What about the logIC50 [4] of the same molecule?
Answer: -8.1

Question: Which results are given for YAEGTFISDYSIAMDKIRQQDFVNWLLAQRGKKSDWKHNITQ (ligand) [Mouse GIP (glucose-dependent insulinotropic polypeptide, GIP(1-42))]?
Answer: Ki (Human GIP receptor [9]): 2 nM; logIC50 (Human GIP receptor [9]): -8.7; logIC50 (Rat GIP receptor [10]): -8.9; Emax of cAMP accumulation in transfected COS-7 cells (Human GIP receptor [11]): 99; Emax of cAMP accumulation in transfected COS-7 cells (Rat GIP receptor [12]): 120; Emax of cAMP accumulation in transfected COS-7 cells (Mouse GIP receptor [13]): 156

Question: With YAEGTFISDYSIAMDKIRQQDFVNWLLAQKGKKNDWKHNLTQ (ligand) [Rat GIP (glucose-dependent insulinotropic polypeptide, GIP(1-42))] as the molecule, how does the logIC50 (Human GIP receptor [9]) read?
Answer: -8.9

Question: What about the logIC50 (Mouse GIP receptor [14]) of the same molecule?
Answer: -9.6

Question: What about the “Emax of cAMP accumulation in transfected COS-7 cells” value (from here on “Emax … in transfected COS-7 cells”) (Human GIP receptor [11]) of the same molecule?
Answer: 113

Question: What about the “Emax … in transfected COS-7 cells” value (Rat GIP receptor [12]) of the same molecule?
Answer: 117

Question: What about the “Emax … in transfected COS-7 cells” value (Mouse GIP receptor [13]) of the same molecule?
Answer: 144

Question: With YAEGTFISDYSIAMDKIHQQDFVNWLLAQKGKKNDWKHNITQ (ligand) [Human GIP (glucose-dependent insulinotropic polypeptide, GIP(1-42))] as the molecule, how does the “Emax … in transfected COS-7 cells” value (Rat GIP receptor [12]) read?
Answer: 100
